Experimental findings from paper PMC10949331, “Labile assembly of a tardigrade protein induces biostasis” (Protein Science : A Publication of the Protein Society, 2024) are described below.

The data set concerns the molecule itself. The data set can be described thus: cross-linking; 1 mg/mL of each protein with increasing BS3 amine ester crosslinker (0.8-8 mM), 30 min at room temperature; denaturing SDS-PAGE, Coomassie blue.

B1: Cytoplasmic Abundant Heat Soluble protein D (CAHS D), wild type (natural protein, Hypsibius exemplaris, UniProt P0CU50 1-227, looked up)
chain: MSGRNVESHMERNEKVVVNNSGHADVKKQQQQVEHTEFTHTEVKAPLIHPAPPIISTGAAGLAEEIVGQGFTASAARISGGTAEIHLQPSAAMTEEARRDQERYRQEQESIAKQQEREMEKKTEAYRKTAEAEAEKIRKELEKQHARDVEFRKDLIESTIDRQKREVDLEAKMAKRELDREGQLAKEALERSRLATNVEVNFDSAAGHTVSGGTTVSTSDKMEIKRN
notes: CAHS D of the tardigrade Hypsibius exemplaris, 227 residues, UniProt P0CU50; Cloned into pET28b; also called CAHS8_HYPEX; CAHS 94063; source: E. coli BL21 (DE3), purified (heat lysis, cation exchange in 8 M urea, dialysis, lyophilised)
Take B1: the binding result is given as “binds”.
